We go through 15 molecules from patent US20260015420A1 (CENTESSA PHARMACEUTICALS UK, published 2026).

The labels stand for the following.
T1: cynomolgus monkey CD47-Fc (cynomolgus monkey, UniProt Q08722 19-139 (human entry), limits assumed)
T1 construct: also called cCD47; cyno CD47-Fc; not shown: Fc part
T1 chain: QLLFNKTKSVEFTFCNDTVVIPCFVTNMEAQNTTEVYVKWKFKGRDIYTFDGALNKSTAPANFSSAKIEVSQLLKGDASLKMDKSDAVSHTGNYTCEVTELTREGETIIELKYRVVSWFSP

T2: Cyno CD47 (Biacore steady state analysis) (cynomolgus monkey, UniProt Q08722 19-139 (human entry), limits assumed)
T2 construct: The construct on the Biacore chip is not described (possibly CD47-Fc)
T2 chain: T1 chain

T3: cynomolgus monkey CD47 on cyno CD47-transfected CHO-K1 cells (cynomolgus monkey, UniProt Q08722 19-323 (human entry))
T3 construct: CHO-K1 cells stably transfected with cyno CD47 full-length cDNA; also called cyno CD47+ cells; cyno CD47+CHO-K1
T3 chain: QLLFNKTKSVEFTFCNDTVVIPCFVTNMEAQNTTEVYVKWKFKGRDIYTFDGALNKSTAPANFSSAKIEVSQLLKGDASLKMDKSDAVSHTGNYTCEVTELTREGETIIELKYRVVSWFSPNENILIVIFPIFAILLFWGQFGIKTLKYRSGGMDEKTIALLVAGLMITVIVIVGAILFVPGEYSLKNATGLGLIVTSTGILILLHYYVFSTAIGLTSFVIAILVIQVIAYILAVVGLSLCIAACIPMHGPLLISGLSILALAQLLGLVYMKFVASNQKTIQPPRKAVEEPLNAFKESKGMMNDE

B1: F-E5, human IgG1null (antibody, V domains shown)
VH: EVQLVQSGAEVKKPGESLKISCKGSGYSFTNYNIHWVRQMPGKGLEWMGTIYPGNSDTSYNPKFQGQVTISADKSISTAYLQWSSLKASDTAMYYCARGGKRAMDYWGQGTLVTVSS
VL: DIVMTQSPLSLPVTPGEPASISCRSSQSLLHSNGNTYLGWYLQKPGQSPQLLIYKGSNRFSGVPDRFSGSGSGTDFTLKISRVEAEDVGVYYCMQASQVPYTFGQGTKLEIK
notes: framework limits derived from the Unified CDR definitions; IgG1null; also called Clone F-E5
B2: D6 IgG, human IgG1null (antibody, V domains shown)
VH: B1 VH with K63S, K101V
VL: B1 VL
notes: The text prints both D6 and D-A6 for what reads as the same clone; IgG1null; also called D-A6 IgG; Clone D6
B3: E-A1, human IgG1null (antibody, V domains shown)
VH: B1 VH with N55D, S59R, K101Y, M104E
VL: B1 VL with A96G, Q98H
notes: IgG1null; also called Clone E-A1
B4: F-G3, human IgG1null (antibody, V domains shown)
VH: B1 VH with P62H, K101N, M104E
VL: B1 VL
notes: IgG1null; also called clone F-G3
B5: VH1.8/VL1.4, human IgG1null (antibody, V domains shown)
VH: QVQLVQSGAEVKKPGASVKVSCKASGYTFTNYAMHWVRQAPGQRLEWMGTIYPGNDDTKYNQKFQGRVTITADTSASTAYMELSSLRSEDTAVYYCARGGFRAMDYWGQGTLVTVSS
VL: B1 VL with G34A, N35Y, T36N, M94F
notes: IgG1null; also called Clone VH1.8/VL1.4
B6: VH1.8/VL1.5, human IgG1null (antibody, V domains shown)
VH: B5 VH
VL: B1 VL with G34A, N35Y, T36N, M94F, Q98H
notes: IgG1null; also called Clone VH1.8/VL1.5
B7: VH1.8/VL1.1, human IgG1null (antibody, V domains shown)
VH: B5 VH
VL: B1 VL with M94F, Q98H
notes: IgG1null (L234A/L235A/G237A); also called Clone VH1.8/VL1.1
B8: VH1.8/VL1.6, human IgG1null (antibody, V domains shown)
VH: B5 VH
VL: B1 VL with G34A, M94F, Q98H
notes: IgG1null; also called Clone VH1.8/VL1.6
B9: VH1.8/VL1.3, human IgG1null (antibody, V domains shown)
VH: B5 VH
VL: B1 VL with G34A, M94F
notes: IgG1null; also called Clone VH1.8/VL1.3
B10: VH1.8/VL1.2, human IgG1null (antibody, V domains shown)
VH: B5 VH
VL: B1 VL with M94F
notes: IgG1null; also called Clone VH1.8/VL1.2
B11: FAB VH1.8/1.6DI (Fab, V domains shown)
VH: B5 VH
VL: B1 VL with G34A, L52A, V88A, M94F, Q98H
notes: Fab expressed as soluble monomer; VL carries the two deimmunising alanine substitutions; also called VH1.8/VL1.6-DI Fab
B12: FAB VH1.8/1.6 (Fab, V domains shown)
VH: B5 VH
VL: B1 VL with G34A, M94F, Q98H
notes: Fab expressed as soluble monomer; also called VH1.8/VL1.6 Fab
B13: FAB VH1.8/1.1 (Fab, V domains shown)
VH: B5 VH
VL: B1 VL with M94F, Q98H
notes: Fab expressed as soluble monomer; also called VH1.8/VL1.1 Fab
B14: IGHV5-51 graft IgG (IGKV2-28/IGHV5-51 graft), human IgG1null (antibody, V domains shown)
VH: B1 VH with I34M, S56D, P62Q, K101Y
VL: B1 VL with L29I, L30V, H31Y, G56V, M94F, A96G, Q98H
notes: IgG1null; also called IGHV5-51 grafted IgG; IGHV5-51-grafted IgG

Numbering of substitutions follows the chain as printed. Names and notes keep the numbering of the source.

The target of the first experiment is Insulin. The experiment can be described thus: ELISA on coated insulin, OD450. (In an ELISA, binding on a coated surface is turned into a signal by an enzyme label.)
Chain of Insulin (P01308 25-54, chain 1 of 2): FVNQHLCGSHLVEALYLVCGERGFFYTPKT
Chain of Insulin (P01308 90-110, chain 2 of 2): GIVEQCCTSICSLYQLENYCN
Molecule “Bococizumab human IgG1 analogue (antibody)” displayed an EC50 (read off the curve) of 0.02 mg/L.

A further experiment has as its target T1, cynomolgus monkey CD47-Fc. The experiment can be described thus: direct ELISA, coated cyno CD47-Fc, OD450.
In the case of B1, the binding result is listed as “binds”.
Same read-out and setting: as for B2, the entry is “binds”.
On the same count and under the same terms, as for B3, the entry is “binds”; as for B4, “binds”.

For a further experiment, the target named is T4, human CD47-Fc (human, UniProt Q08722 19-139).
T4 construct: also called hCD47; human CD47-Fc protein; not shown: Fc part
The experiment can be described thus: direct ELISA, coated human CD47-Fc, OD450.
Consider B1, for which the “EC50 (read off the curve)” value is roughly 0.06 mg/L.
For the molecule B2, the “EC50 (read off the curve)” value is roughly 0.09 mg/L.
Turning to B4, the binding result is given as “binds”.

The next experiment addresses T4, human CD47-Fc. Nature of the experiment: direct ELISA, coated human CD47-Fc, OD450. This is another data set of the same source.
Target sequence in this assay (Q08722 19-139 limits assumed): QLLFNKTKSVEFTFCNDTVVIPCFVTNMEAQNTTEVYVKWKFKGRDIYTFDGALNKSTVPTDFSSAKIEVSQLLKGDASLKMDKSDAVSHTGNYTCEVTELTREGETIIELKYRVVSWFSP
Turning to B5, the “EC50 (read off the curve)” value is roughly 0.06 mg/L.
Still for that read-out and setting: as for B6, the figure is roughly 0.06 mg/L; as for B7, roughly 0.06 mg/L; as for B8, roughly 0.06 mg/L.
B9: the “EC50 (read off the curve)” value is roughly 0.06 mg/L.
Take B10: the “EC50 (read off the curve)” value is roughly 0.06 mg/L.

A further experiment deals with T2, Cyno CD47 (Biacore steady state …). The experiment can be described thus: Biacore SPR, steady state affinity, monomeric Fab. In general terms: In SPR one partner is held on a chip, and binding of the other changes the refractive index at the surface.
B11 showed a Kd of 0.0278 µM.
Turning to B12, the Kd is 0.0259 µM.
Consider B13, for which binding was put at a Kd of 0.0179 µM.

The target in another experiment is T3, cynomolgus monkey CD47 on cyno …. The experiment can be described thus: flow cytometry, CHO-K1 cells transfected with cyno CD47, MFI. Background: A flow cytometer gives signals particle by particle.
With B5, the binding result is given as “binds”.
On the same count and under the same terms, next, B6: “binds”.
Consider B7, for which the binding result was “binds”.
For B8, the binding result was “binds”.
In the case of B9, the binding result is given as “binds”.
With B10, the binding result was “binds”.

The target of the next experiment is T1, cynomolgus monkey CD47-Fc. The experiment can be described thus: competition ELISA: cyno CD47-Fc binding to plate-bound human SIRPa-Fc, OD450.
On to B14, for which the “IC50 (read off the curve)” value is roughly 0.005 µM.

The target in the next experiment is T4, human CD47-Fc. Nature of the experiment: HTRF competition with labelled h5F9G4 IgG1 (m11) for human CD47-Fc, 665/615 ratio.
Turning to B1, the “IC50 (read off the curve)” value was roughly 4 mg/L.
B3: the “IC50 (read off the curve)” value was roughly 1 mg/L.

For the next experiment, the target named is T4, human CD47-Fc. The experiment is described as above. The source holds these as a separate data set.
Turning to B2, the “IC50 (read off the curve)” value was roughly 4 mg/L.
Take B14: the “IC50 (read off the curve)” value was roughly 0.3 mg/L.

A further experiment addresses T4, human CD47-Fc. The experiment can be described thus: competition ELISA: human CD47-Fc binding to plate-bound human SIRPa-Fc, OD450.
In the case of B14, the “IC50 (read off the curve)” value is roughly 0.004 µM.

For a further experiment, the target named is T4, human CD47-Fc. The experiment can be described thus: HTRF epitope competition; competitor Tb-labelled h5F9G4 IgG1 on biotinylated human CD47-Fc.
Target sequence in this assay (Q08722 19-139 limits assumed): as above
Turning to B5, the IC50 stood at 2.94 mg/L.
Same read-out and setting: next, B6: 0.911 mg/L.
B7: the 50% inhibitory concentration (IC50) was 0.459 mg/L.
For B8, the IC50 worked out at 0.56 mg/L.
B9: the IC50 amounted to 0.928 mg/L.
On the same count and under the same terms, next, B10: 0.586 mg/L.

In a further experiment the target is T4, human CD47-Fc. Nature of the experiment: competition ELISA: human CD47-Fc binding to plate-bound human SIRPa-Fc, % binding.
Target sequence in this assay (Q08722 19-139 limits assumed): as above
For the molecule B5, the “IC50 (read off the curve)” value was roughly 2 mg/L.
Regarding B6, the “IC50 (read off the curve)” value is roughly 0.4 mg/L.
In the case of B8, the “IC50 (read off the curve)” value was roughly 0.3 mg/L.
Turning to B9, the “IC50 (read off the curve)” value is roughly 0.4 mg/L.

By EC50 (read off the curve) is commonly meant the concentration at which the effect is half-maximal. The term Kd denotes the equilibrium constant for the complex coming apart. Usually IC50 stands for the concentration that inhibits the measured activity by half.
